Results on one molecule are retold here after patent CN115043942A.

For the assay, the target named is 人ROR1 ECD蛋白 (胞外结构域aa30-406) (human) (UniProt Q01973). As to the kind of experiment: BLI (Octet ForteBio), antibody on AHC probe, human ROR1 ECD in solution, 1:1 model; mean of two determinations. A general note: Biolayer interferometry detects binding as a change in optical thickness at a sensor tip.
Sequence of UniProt Q01973 (Q01973 30-406): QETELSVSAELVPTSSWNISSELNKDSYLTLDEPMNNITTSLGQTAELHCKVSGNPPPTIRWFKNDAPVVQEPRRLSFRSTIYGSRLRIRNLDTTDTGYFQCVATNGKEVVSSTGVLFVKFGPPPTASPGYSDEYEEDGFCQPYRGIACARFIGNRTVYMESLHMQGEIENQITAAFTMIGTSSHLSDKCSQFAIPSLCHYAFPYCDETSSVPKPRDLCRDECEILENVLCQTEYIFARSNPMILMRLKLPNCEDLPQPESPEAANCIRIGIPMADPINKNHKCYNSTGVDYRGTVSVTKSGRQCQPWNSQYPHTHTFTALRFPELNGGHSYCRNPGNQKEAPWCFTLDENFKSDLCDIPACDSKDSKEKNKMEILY

B1: 抗人ROR1抗体UC961 (带有人IgG1) (antibody, from another filing, V domains shown)
VH: QVQLQESGPGLVKPSQTLSLTCTVSGYAFTAYNIHWVRQAPGQGLEWMGSFDPYDGGSSYNQKFKDRLTISKDTSKNQVVLTMTNMDPVDTATYYCARGWYYFDYWGHGTLVTVSS
VL: DIVMTQTPLSLPVTPGEPASISCRASKSISKYLAWYQQKPGQAPRLLIYSGSTLQSGIPPRFSGSGYGTDFTLTINNIESEDAAYYFCQQHDESPYTFGEGTKVEIK
Usually Kd stands for the equilibrium constant for the complex coming apart. Low values mean a tighter complex, high ones a looser complex. The term koff denotes a measure of how fast the partners let go of each other. Read a low koff as slow dissociation. As a reminder, the kon is the second-order rate constant of association. In turn, B1 showed a Kd of 15.8 nM, a koff of 0.0137 s⁻¹ and a kon of 981000 M⁻¹ s⁻¹.
